Molecular target: T1, IclR (XyrR, XynR homolog) (Serratia sp. ATCC 39006, UniProt A0A2I5T4I6 1-255)
T1 sequence: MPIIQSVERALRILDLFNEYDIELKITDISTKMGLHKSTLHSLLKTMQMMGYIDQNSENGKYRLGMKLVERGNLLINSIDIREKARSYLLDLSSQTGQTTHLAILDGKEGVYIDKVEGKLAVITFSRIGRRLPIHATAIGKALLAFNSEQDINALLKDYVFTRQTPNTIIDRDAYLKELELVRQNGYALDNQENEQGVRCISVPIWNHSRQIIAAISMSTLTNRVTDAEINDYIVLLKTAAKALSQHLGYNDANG
Test: EMSA; complete shift at 0.8 uM IclR (stated protein:DNA 32:1; Methods state probe 5 nM); 10 mM Tris-HCl pH 8, 5 mM DTT, 50 mM KCl, 1 mM MgCl2, 10% glycerol, 0.1% Triton X-100, 30 min at 20 C; 5 nM probe
Conditions: protein: recombinant; tags: 6xHis (pQE80); chain copies: 2; label: Cy5 on LUEGO strand (S13); three strands: S15 (long) pairs with S13 followed by S14; nick between S13 and S14; blunt

B1: yagE promoter LUEGO probe (dsDNA)
DNA 1: CACCACAAATTGCAGTGTTAGTATCATTTCGTTAATGTAGAACTTAGTTCTATAATATAAAACAAAATATCAATGAAGATCGACTGACACATATCGATTGTTGTGA
DNA 2: TCACAACAATCGATATGTGTCAGTCGATCTTCATTGATATTTTGTTTTATATTATAGAACTAAGTTCTACATTAACGAAATGATACTAACACTGCAATTTGTGGTGCCAGACCAGGGCAC
DNA 3: GTGCCCTGGTCTGG
B1: binds.

— publication PMC11778176, “The IclR-family transcriptional regulator XyrR controls flotation, motility, antibiotic production and virulence in Serratia sp. ATCC 39006”
